From publication PMC9271601 (Structure (London, England : 1993), 2022)

Tests used:
[1] = target: H3 (A/Texas/50/2012) HA probe (Influenza A virus A/Texas/50/2012 (H3N2), UniProt R4L1D1, strain, biotin (biotin protein ligase, AviTag)); test: flow cytometry on cells
[2] = target: H3N2 A/Victoria/361/2011 hemagglutinin trimer, wild type (Influenza A virus A/Victoria/361/2011 …, UniProt A0A097PF39, strain); test: BLI

B1: 1D12 B cell receptor on the donor's B cell (antibody, V domains shown)
VH: QLVQSGAEVKKPGASVKVSCKASGYTFTGYYLHWVRQAPGQGLEWMGRINPDTGGTNYAQKFQGRVSMTRDMSISTHYMELSRLTSDDTAVYYCATKRGAVTAMVYYYFYGMDVWGQGTTVTVSS
VL: DIVMTQSPLSLSVTPGEPASISCRSSHSLLHLNGYNYLDWYLQKPGQSPQLLIYLGSNRASGVPDRFSGSGSGTDFTLKISRVEAEDVGIYYCMQALRTPPGLTFGGGTKVDIK
- binding result [1]: binds

B2: 315–19-1D12 Fab (Fab, V domains shown)
VH: QLVQSGAEVKKPGASVKVSCKASGYTFTGYYLHWVRQAPGQGLEWMGRINPDTGGTNYAQKFQGRVSMTRDMSISTHYMELSRLTSDDTAVYYCATKRGAVTAMVYYYFYGMDVWGQGTTVTVSS
VL: DIVMTQSPLSLSVTPGEPASISCRSSHSLLHLNGYNYLDWYLQKPGQSPQLLIYLGSNRASGVPDRFSGSGSGTDFTLKISRVEAEDVGIYYCMQALRTPPGLTFGGGTKVDIK
- binding result [2]: binds
